# B1: FliP (natural protein)
# chain: QLPGLISQPLAGGGQSWSLSVQTLVFITSLTFLPAILLMMTSFTRIIIVFGLLRNALGTPSAPPNQVLLGLALFLTFFIMSPVIDKIYVDAYQPFSEQKISMQEALDKGAQPLRAFMLRQTREADLALFARLANSGPLQGPEAVPMRILLPAYVTSELKTAFQIGFTIFIPFLIIDLVIASVLMALGMMMVPPATIALPFKLMLFVLVDGWQLLMGSLAQSFYS
# notes: FliP, Salmonella enterica serovar Typhimurium; signal peptide (residues 1 to 21) cleaved between Ala-21 and Gln-22 during membrane insertion; the mature protein begins at Gln-22; Five copies of FliP stand in the FliP5-FliQ4-FliR1 complex; also called mature FliP; FliP^1; source: membranes solubilised with 1% LMNG; reconstituted in a peptidisc
# Biological target: the molecule itself
# Test: cryo-EM structure; FliP, FliQ and FliR-His co-expressed in Salmonella SJW1368, complex solubilised with LMNG, purified and reconstituted in a peptidisc; single-particle analysis, C1 symmetry, 3.0 Å, closed form
protein,measurement,value
B1,stoichiometry N,5

# Source: paper PMC12403130, “A β-cap on the FliPQR protein-export channel acts as the cap for initial flagellar rod assembly” (Proceedings of the National Academy of Sciences of the …, 2025)
